The values that follow come from patent US20120028271A1.

Assay [1] concerns the target proteasome of mammalian cell and human tissue extracts (detected through Rpt1, Rpn2, Rpn1 and 20S alpha subunits and chymotryptic activity) (human). Briefly: GST pull-down from cell extracts, co-purified chymotryptic activity standardized to UbL-A, 14 measurements.
The target is the same in assay [2]. Briefly: GST pull-down from cell extracts, co-purified chymotryptic activity, 5 measurements.

Sequence of proteasome of mammalian cell and human tissue extracts (detected through Rpt1, Rpn2, Rpn1 and 20S alpha subunits and chymotryptic activity) (human) (P35998 2-433, form in doubt, chain 1 of 2): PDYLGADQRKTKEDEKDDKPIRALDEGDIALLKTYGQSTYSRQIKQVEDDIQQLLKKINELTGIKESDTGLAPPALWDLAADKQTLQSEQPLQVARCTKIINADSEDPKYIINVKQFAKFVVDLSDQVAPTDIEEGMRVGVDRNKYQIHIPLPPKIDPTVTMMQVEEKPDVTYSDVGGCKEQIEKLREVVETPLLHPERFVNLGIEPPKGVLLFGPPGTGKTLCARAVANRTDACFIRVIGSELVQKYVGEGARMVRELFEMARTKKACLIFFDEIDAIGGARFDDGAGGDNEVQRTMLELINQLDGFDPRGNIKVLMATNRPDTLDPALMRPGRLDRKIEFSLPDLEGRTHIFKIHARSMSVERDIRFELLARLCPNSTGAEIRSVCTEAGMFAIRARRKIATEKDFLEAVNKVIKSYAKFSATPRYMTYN
Sequence of proteasome of mammalian cell and human tissue extracts (detected through Rpt1, Rpn2, Rpn1 and 20S alpha subunits and chymotryptic activity) (human) (B8ZZH9 whole entry, form in doubt, chain 2 of 2, further chain): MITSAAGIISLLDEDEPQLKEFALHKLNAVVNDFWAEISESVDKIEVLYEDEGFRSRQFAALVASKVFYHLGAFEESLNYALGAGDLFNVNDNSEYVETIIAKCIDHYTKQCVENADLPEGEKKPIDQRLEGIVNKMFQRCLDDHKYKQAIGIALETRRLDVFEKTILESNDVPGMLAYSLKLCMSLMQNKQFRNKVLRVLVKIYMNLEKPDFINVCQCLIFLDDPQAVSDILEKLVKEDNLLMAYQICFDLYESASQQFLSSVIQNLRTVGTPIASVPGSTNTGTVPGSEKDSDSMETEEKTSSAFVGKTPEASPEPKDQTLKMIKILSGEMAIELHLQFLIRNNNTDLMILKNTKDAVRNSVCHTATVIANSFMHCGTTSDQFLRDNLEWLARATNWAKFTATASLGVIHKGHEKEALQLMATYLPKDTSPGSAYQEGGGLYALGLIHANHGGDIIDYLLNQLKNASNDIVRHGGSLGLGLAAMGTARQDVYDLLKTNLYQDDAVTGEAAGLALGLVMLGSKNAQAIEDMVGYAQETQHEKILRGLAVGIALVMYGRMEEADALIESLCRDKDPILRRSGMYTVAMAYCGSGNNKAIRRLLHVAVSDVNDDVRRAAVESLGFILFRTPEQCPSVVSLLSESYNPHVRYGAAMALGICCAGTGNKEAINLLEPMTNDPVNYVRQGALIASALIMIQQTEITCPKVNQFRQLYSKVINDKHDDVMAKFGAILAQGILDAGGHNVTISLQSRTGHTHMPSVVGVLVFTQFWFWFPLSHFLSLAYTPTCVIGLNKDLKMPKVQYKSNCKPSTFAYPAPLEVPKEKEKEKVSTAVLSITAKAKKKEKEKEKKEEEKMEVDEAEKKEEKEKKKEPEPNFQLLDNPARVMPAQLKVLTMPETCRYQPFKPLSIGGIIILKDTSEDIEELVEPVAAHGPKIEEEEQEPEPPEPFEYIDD

“GST-UbL-B (UbL domain of human hHR23B, residues 1-78) (from UniProt P54727 1-78)” had a fold proteasome purified (chymotryptic activity) relative to UbL-A in assay [1] of 2.94 fold.

B1: GST-UbL-A^1-78 (UbL domain of hHR23A ending in Val-Val-Val-Met-Val-Thr-Lys) (protein, not shown: a dimerising Fc or GST)
chain: MAVTITLKTLQQQTFKIRMEPDETVKVLKEKIEAEKGRDAFPVAGQKLIYAGKILSDDVPIRDYRIDEKNFVVVMVTK
With B1, in assay [2], the fold increase of proteasome interaction / associated chymotryptic activity relative to UbL-A^1-79 came to 2.5 fold.
